This note sets out measurements from paper PMC7069968, “Cholesteryl α-D-glucoside 6-acyltransferase enhances the adhesion of Helicobacter pylori to gastric epithelium” (Communications Biology, 2020).

Series [1] deals with CC(C)CCC[C@@H](C)[C@H]1CC[C@H]2[C@@H]3CC=C4C[C@@H](O[C@H]5O[C@H](CO)[C@@H](O)[C@H](O)[C@H]5O)CC[C@]4(C)[C@H]3CC[C@]12C. Nature of the series: purified protein. To be noted: Ca2+ acyl acceptor; sequential rapid-equilibrium random bi-bi mechanism.
Series [2] has as its system CCCCCCCCCCCCCC(=O)OC[C@H](COP(=O)(O)OCCN)OC(=O)CCCCCCCCCCCCC
Nature of the series: purified protein. To be noted: Ca2+ acyl donor; phospholipase A1-type, a1-position acyl chain transferred to CG.

As usually defined, the Km is the concentration of substrate that gives half-maximal velocity. For “cholesteryl α-D-glucopyranoside 6′-acyltransferase (CGAT) (Helicobacter pylori 26695)”, the Km in series [1] amounted to 26.0 µM; in series [2], 290 µM.
